B1: human aldehyde oxidase 1 variant G46E (enzyme)
chain: MDRASELLFYVNGRKVIEKNVDPETMLLPYLRKKLRLTGTKYGCGEGGCGACTVMISRYNPITKRIRHHPANACLIPICSLYGAAVTTVEGIGSTHTRIHPVQERIAKCHGTQCGFCTPGMVMSIYTLLRNHPEPTLDQLTDALGGNLCRCTGYRPIIDACKTFCKTSGCCQSKENGVCCLDQGINGLPEFEEGSKTSPKLFAEEEFLPLDPTQELIFPPELMIMAEKQSQRTRVFGSERMMWFSPVTLKELLEFKFKYPQAPVIMGNTSVGPEVKFKGVFHPVIISPDRIEELSVVNHAYNGLTLGAGLSLAQVKDILADVVQKLPEEKTQMYHALLKHLGTLAGSQIRNMASLGGHIISRHPDSDLNPILAVGNCTLNLLSKEGKRQIPLNEQFLSKCPNADLKPQEILVSVNIPYSRKWEFVSAFRQAQRQENALAIVNSGMRVFFGEGDGIIRELCISYGGVGPATICAKNSCQKLIGRHWNEQMLDIACRLILNEVSLLGSAPGGKVEFKRTLIISFLFKFYLEVSQILKKMDPVHYPSLADKYESALEDLHSKHHCSTLKYQNIGPKQHPEDPIGHPIMHLSGVKHATGEAIYCDDMPLVDQELFLTFVTSSRAHAKIVSIDLSEALSMPGVVDIMTAEHLSDVNSFCFFTEAEKFLATDKVFCVGQLVCAVLADSEVQAKRAAKRVKIVYQDLEPLILTIEESIQHNSSFKPERKLEYGNVDEAFKVVDQILEGEIHMGGQEHFYMETQSMLVVPKGEDQEMDVYVSTQFPKYIQDIVASTLKLPANKVMCHVRRVGGAFGGKVLKTGIIAAVTAFAANKHGRAVRCVLERGEDMLITGGRHPYLGKYKAGFMNDGRILALDMEHYSNAGASLDESLFVIEMGLLKMDNAYKFPNLRCRGWACRTNLPSNTAFRGFGFPQAALITESCITEVAAKCGLSPEKVRIINMYKEIDQTPYKQEINAKNLIQCWRECMAMSSYSLRKVAVEKFNAENYWKKKGLAMVPLKFPVGLGSRAAGQAAALVHIYLDGSVLVTHGGIEMGQGVHTKMIQVVSRELRMPMSNVHLRGTSTETVPNANISGGSVVADLNGLAVKDACQTLLKRLEPIISKNPKGTWKDWAQTAFDESINLSAVGYFRGYESDMNWEKGEGQPFEYFVYGAACSEVEIDCLTGDHKNIRTDIVMDVGCSINPAIDIGQIEGAFIQGMGLYTIEELNYSPQGILHTRGPDQYKIPAICDMPTELHIALLPPSQNSNTLYSSKGLGESGVFLGCSVFFAIHDAVSAARQERGLHGPLTLNSPLTPEKIRMACEDKFTKMIPRDEPGSYVPWNVPI
notes: human aldehyde oxidase 1 (hAOX1), protein of 1338 amino acids, SNP-based variant G46E; construct pAF4 derived from pTHcohAOX1; also called hAOX1 G46E; pAF4; source: E. coli TP1000 (ΔmobAB), purified (nickel-nitrilotriacetic acid resin, size exclusion chromatography)
B2: human aldehyde oxidase 1 variant K1237N (enzyme)
chain: MDRASELLFYVNGRKVIEKNVDPETMLLPYLRKKLRLTGTKYGCGGGGCGACTVMISRYNPITKRIRHHPANACLIPICSLYGAAVTTVEGIGSTHTRIHPVQERIAKCHGTQCGFCTPGMVMSIYTLLRNHPEPTLDQLTDALGGNLCRCTGYRPIIDACKTFCKTSGCCQSKENGVCCLDQGINGLPEFEEGSKTSPKLFAEEEFLPLDPTQELIFPPELMIMAEKQSQRTRVFGSERMMWFSPVTLKELLEFKFKYPQAPVIMGNTSVGPEVKFKGVFHPVIISPDRIEELSVVNHAYNGLTLGAGLSLAQVKDILADVVQKLPEEKTQMYHALLKHLGTLAGSQIRNMASLGGHIISRHPDSDLNPILAVGNCTLNLLSKEGKRQIPLNEQFLSKCPNADLKPQEILVSVNIPYSRKWEFVSAFRQAQRQENALAIVNSGMRVFFGEGDGIIRELCISYGGVGPATICAKNSCQKLIGRHWNEQMLDIACRLILNEVSLLGSAPGGKVEFKRTLIISFLFKFYLEVSQILKKMDPVHYPSLADKYESALEDLHSKHHCSTLKYQNIGPKQHPEDPIGHPIMHLSGVKHATGEAIYCDDMPLVDQELFLTFVTSSRAHAKIVSIDLSEALSMPGVVDIMTAEHLSDVNSFCFFTEAEKFLATDKVFCVGQLVCAVLADSEVQAKRAAKRVKIVYQDLEPLILTIEESIQHNSSFKPERKLEYGNVDEAFKVVDQILEGEIHMGGQEHFYMETQSMLVVPKGEDQEMDVYVSTQFPKYIQDIVASTLKLPANKVMCHVRRVGGAFGGKVLKTGIIAAVTAFAANKHGRAVRCVLERGEDMLITGGRHPYLGKYKAGFMNDGRILALDMEHYSNAGASLDESLFVIEMGLLKMDNAYKFPNLRCRGWACRTNLPSNTAFRGFGFPQAALITESCITEVAAKCGLSPEKVRIINMYKEIDQTPYKQEINAKNLIQCWRECMAMSSYSLRKVAVEKFNAENYWKKKGLAMVPLKFPVGLGSRAAGQAAALVHIYLDGSVLVTHGGIEMGQGVHTKMIQVVSRELRMPMSNVHLRGTSTETVPNANISGGSVVADLNGLAVKDACQTLLKRLEPIISKNPKGTWKDWAQTAFDESINLSAVGYFRGYESDMNWEKGEGQPFEYFVYGAACSEVEIDCLTGDHKNIRTDIVMDVGCSINPAIDIGQIEGAFIQGMGLYTIEELNYSPQGILHTRGPDQYNIPAICDMPTELHIALLPPSQNSNTLYSSKGLGESGVFLGCSVFFAIHDAVSAARQERGLHGPLTLNSPLTPEKIRMACEDKFTKMIPRDEPGSYVPWNVPI
notes: human aldehyde oxidase 1 (hAOX1), protein of 1338 amino acids, SNP-based variant K1237N; construct pAF13 derived from pTHcohAOX1; also called hAOX1 K1237N; pAF13; source: E. coli TP1000 (ΔmobAB), purified (nickel-nitrilotriacetic acid resin, size exclusion chromatography)
B3: human aldehyde oxidase 1 variant G346R (enzyme)
chain: MDRASELLFYVNGRKVIEKNVDPETMLLPYLRKKLRLTGTKYGCGGGGCGACTVMISRYNPITKRIRHHPANACLIPICSLYGAAVTTVEGIGSTHTRIHPVQERIAKCHGTQCGFCTPGMVMSIYTLLRNHPEPTLDQLTDALGGNLCRCTGYRPIIDACKTFCKTSGCCQSKENGVCCLDQGINGLPEFEEGSKTSPKLFAEEEFLPLDPTQELIFPPELMIMAEKQSQRTRVFGSERMMWFSPVTLKELLEFKFKYPQAPVIMGNTSVGPEVKFKGVFHPVIISPDRIEELSVVNHAYNGLTLGAGLSLAQVKDILADVVQKLPEEKTQMYHALLKHLGTLARSQIRNMASLGGHIISRHPDSDLNPILAVGNCTLNLLSKEGKRQIPLNEQFLSKCPNADLKPQEILVSVNIPYSRKWEFVSAFRQAQRQENALAIVNSGMRVFFGEGDGIIRELCISYGGVGPATICAKNSCQKLIGRHWNEQMLDIACRLILNEVSLLGSAPGGKVEFKRTLIISFLFKFYLEVSQILKKMDPVHYPSLADKYESALEDLHSKHHCSTLKYQNIGPKQHPEDPIGHPIMHLSGVKHATGEAIYCDDMPLVDQELFLTFVTSSRAHAKIVSIDLSEALSMPGVVDIMTAEHLSDVNSFCFFTEAEKFLATDKVFCVGQLVCAVLADSEVQAKRAAKRVKIVYQDLEPLILTIEESIQHNSSFKPERKLEYGNVDEAFKVVDQILEGEIHMGGQEHFYMETQSMLVVPKGEDQEMDVYVSTQFPKYIQDIVASTLKLPANKVMCHVRRVGGAFGGKVLKTGIIAAVTAFAANKHGRAVRCVLERGEDMLITGGRHPYLGKYKAGFMNDGRILALDMEHYSNAGASLDESLFVIEMGLLKMDNAYKFPNLRCRGWACRTNLPSNTAFRGFGFPQAALITESCITEVAAKCGLSPEKVRIINMYKEIDQTPYKQEINAKNLIQCWRECMAMSSYSLRKVAVEKFNAENYWKKKGLAMVPLKFPVGLGSRAAGQAAALVHIYLDGSVLVTHGGIEMGQGVHTKMIQVVSRELRMPMSNVHLRGTSTETVPNANISGGSVVADLNGLAVKDACQTLLKRLEPIISKNPKGTWKDWAQTAFDESINLSAVGYFRGYESDMNWEKGEGQPFEYFVYGAACSEVEIDCLTGDHKNIRTDIVMDVGCSINPAIDIGQIEGAFIQGMGLYTIEELNYSPQGILHTRGPDQYKIPAICDMPTELHIALLPPSQNSNTLYSSKGLGESGVFLGCSVFFAIHDAVSAARQERGLHGPLTLNSPLTPEKIRMACEDKFTKMIPRDEPGSYVPWNVPI
notes: human aldehyde oxidase 1 (hAOX1), protein of 1338 amino acids, SNP-based variant G346R; construct pAF6 derived from pTHcohAOX1; also called hAOX1 G346R; pAF6; source: E. coli TP1000 (ΔmobAB), purified (nickel-nitrilotriacetic acid resin, size exclusion chromatography)
B4: human aldehyde oxidase 1 variant G50D (enzyme)
chain: MDRASELLFYVNGRKVIEKNVDPETMLLPYLRKKLRLTGTKYGCGGGGCDACTVMISRYNPITKRIRHHPANACLIPICSLYGAAVTTVEGIGSTHTRIHPVQERIAKCHGTQCGFCTPGMVMSIYTLLRNHPEPTLDQLTDALGGNLCRCTGYRPIIDACKTFCKTSGCCQSKENGVCCLDQGINGLPEFEEGSKTSPKLFAEEEFLPLDPTQELIFPPELMIMAEKQSQRTRVFGSERMMWFSPVTLKELLEFKFKYPQAPVIMGNTSVGPEVKFKGVFHPVIISPDRIEELSVVNHAYNGLTLGAGLSLAQVKDILADVVQKLPEEKTQMYHALLKHLGTLAGSQIRNMASLGGHIISRHPDSDLNPILAVGNCTLNLLSKEGKRQIPLNEQFLSKCPNADLKPQEILVSVNIPYSRKWEFVSAFRQAQRQENALAIVNSGMRVFFGEGDGIIRELCISYGGVGPATICAKNSCQKLIGRHWNEQMLDIACRLILNEVSLLGSAPGGKVEFKRTLIISFLFKFYLEVSQILKKMDPVHYPSLADKYESALEDLHSKHHCSTLKYQNIGPKQHPEDPIGHPIMHLSGVKHATGEAIYCDDMPLVDQELFLTFVTSSRAHAKIVSIDLSEALSMPGVVDIMTAEHLSDVNSFCFFTEAEKFLATDKVFCVGQLVCAVLADSEVQAKRAAKRVKIVYQDLEPLILTIEESIQHNSSFKPERKLEYGNVDEAFKVVDQILEGEIHMGGQEHFYMETQSMLVVPKGEDQEMDVYVSTQFPKYIQDIVASTLKLPANKVMCHVRRVGGAFGGKVLKTGIIAAVTAFAANKHGRAVRCVLERGEDMLITGGRHPYLGKYKAGFMNDGRILALDMEHYSNAGASLDESLFVIEMGLLKMDNAYKFPNLRCRGWACRTNLPSNTAFRGFGFPQAALITESCITEVAAKCGLSPEKVRIINMYKEIDQTPYKQEINAKNLIQCWRECMAMSSYSLRKVAVEKFNAENYWKKKGLAMVPLKFPVGLGSRAAGQAAALVHIYLDGSVLVTHGGIEMGQGVHTKMIQVVSRELRMPMSNVHLRGTSTETVPNANISGGSVVADLNGLAVKDACQTLLKRLEPIISKNPKGTWKDWAQTAFDESINLSAVGYFRGYESDMNWEKGEGQPFEYFVYGAACSEVEIDCLTGDHKNIRTDIVMDVGCSINPAIDIGQIEGAFIQGMGLYTIEELNYSPQGILHTRGPDQYKIPAICDMPTELHIALLPPSQNSNTLYSSKGLGESGVFLGCSVFFAIHDAVSAARQERGLHGPLTLNSPLTPEKIRMACEDKFTKMIPRDEPGSYVPWNVPI
notes: human aldehyde oxidase 1 (hAOX1), protein of 1338 amino acids, SNP-based variant G50D; construct pAF5 derived from pTHcohAOX1; purified with a 10-fold lower yield than the other variants; also called hAOX1 G50D; hAOX1-G50D; source: E. coli TP1000 (ΔmobAB), purified (nickel-nitrilotriacetic acid resin, size exclusion chromatography)

Molecular target: the molecule itself
Experiment: SEC; size exclusion chromatography on a Superdex 200 10/300 GL column after nickel-NTA purification; data not shown

Protein | stoichiometry N
B1 | 2
B2 | 2
B3 | 2
B4 | 2
